Laboratory results taken from patent US20200362018.

T1: T. acidophilum (Archaea) 20S proteasome, P25156
T1 chain 1: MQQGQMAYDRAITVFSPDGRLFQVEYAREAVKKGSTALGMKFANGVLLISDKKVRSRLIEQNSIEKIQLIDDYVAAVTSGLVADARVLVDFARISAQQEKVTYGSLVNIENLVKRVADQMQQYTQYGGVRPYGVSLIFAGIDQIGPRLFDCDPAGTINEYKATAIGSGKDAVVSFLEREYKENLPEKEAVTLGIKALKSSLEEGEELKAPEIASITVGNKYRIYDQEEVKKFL
T1 chain 2: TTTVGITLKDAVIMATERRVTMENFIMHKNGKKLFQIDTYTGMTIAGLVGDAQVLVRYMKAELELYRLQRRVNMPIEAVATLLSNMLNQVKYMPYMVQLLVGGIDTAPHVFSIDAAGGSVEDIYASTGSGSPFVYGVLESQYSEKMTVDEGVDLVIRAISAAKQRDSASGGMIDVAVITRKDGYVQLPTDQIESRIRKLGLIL

T2: S. cerevisiae (Yeast) 20S proteasome, FLAG-tagged (Pre1), P22141
T2 sequence (P22141 1-198, looked up): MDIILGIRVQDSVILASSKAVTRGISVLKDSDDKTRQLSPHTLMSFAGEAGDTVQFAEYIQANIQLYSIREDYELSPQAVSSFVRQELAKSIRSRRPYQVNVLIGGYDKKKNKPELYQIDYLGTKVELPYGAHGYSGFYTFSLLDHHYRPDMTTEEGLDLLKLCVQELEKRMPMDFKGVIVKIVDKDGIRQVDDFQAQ


Tests used:
[1] = target: R. norvegicus (Mammalian) 20S proteasome purified from rat liver
[2] = target: 20S proteasome (source not stated for the experiment)
[3] = target: T1, T. acidophilum (Archaea) 20S …
[4] = target: T2, S. cerevisiae (Yeast) 20S proteasome, …

| Protein | in vitro degradation of oxidized calmodulin by purified mammalian 20S proteasomes [1] | in vitro degradation of α-synuclein by purified mammalian 20S proteasomes [1] | time-dependent degradation of α-synuclein by the 20S proteasome, SDS-PAGE with image analysis [2] | degradation of α-synuclein by the 20S proteasome, SDS-PAGE time course [3] | degradation of α-synuclein by the 20S proteasome, SDS-PAGE time course [4] |
| --- | --- | --- | --- | --- | --- |
| human RBBP9 with a C-terminal 6His tag (protein) MASPSKAVIVPGNGGGDVTTHGWYGWVKKELEKIPGFQCLAKNMPDPITARESIWLPFMETELHCDEKTIIIGHSSGAIAAMRYAETHRVYAIVLVSAYTSDLGDENERASGYFTRPWQWEKIKANCPYIVQFGSTDDPFLPWKEQQEVADRLETKLHKFTDCGHFQNTEFHELITVVKSLLKVPA | OxCam degradation was inhibited by all the candidates | – | – | – | – |
| human PGDH with a C-terminal 6His tag (protein) MHVNGKVALVTGAAQGIGRAFAEALLLKGAKVALVDWNLEAGVQCKAALDEQFEPQKTLFIQCDVADQQQLRDTFRKVVDHFGRLDILVNNAGVNNEKNWEKTLQINLVSVISGTYLGLDYMSKQNGGEGGIIINMSSLAGLMPVAQQPVYCASKHGIVGFTRSAALAANLMNSGVRLNAICPGFVNTAILESIEKEENMGQYIEYKDHIKDMIKYYGILDPPLIANGLITLIEDDALNGAIMKITTSKGIHFQDYDTTPFQAKTQ | OxCam degradation was inhibited by all the candidates | the majority of the CCRs successfully inhibited the degradation of α-synuclein, with the exception of RBBP9 and HRas | – | – | – |
| human NQO2 (recombinant, His-TEV fragment removed) (protein) MAGKKVLIVYAHQEPKSFNGSLKNVAVDELSRQGCTVTVSDLYAMNLEPRATDKDITGTLSNPEVFNYGVETHEAYKQRSLASDITDEQKKVREADLVIFQFPLYWFSVPAILKGWMDRVLCQGFAFDIPGFYDSGLLQGKLALLSVTTGGTAEMYTKTGVNGDSRYFLWPLQHGTLHFCGFKVLAPQISFAPEIASEEERKGMVAAWSQRLQTIWKEEPIPCTAHWHFGQ | OxCam degradation was inhibited by all the candidates | the majority of the CCRs successfully inhibited the degradation of α-synuclein, with the exception of RBBP9 and HRas | In the presence of NQO2, CBR3, PGDH, NRas, KRas and RhoA, however, there was a marked decrease in the degradation rate. | – | – |
| human CBR3 (recombinant, His tag removed) (protein) MSSCSRVALVTGANRGIGLAIARELCRQFSGDVVLTARDVARGQAAVQQLQAEGLSPRFHQLDIDDLQSIRALRDFLRKEYGGLNVLVNNAAVAFKSDDPMPFDIKAEMTLKTNFFATRNMCNELLPIMKPHGRVVNISSLQCLRAFENCSEDLQERFHSETLTEGDLVDLMKKFVEDTKNEVHEREGWPNSPYGVSKLGVTVLSRILARRLDEKRKADRILVNACCPGPVKTDMDGKDSIRTVEEGAETPVYLALLPPDATEPQGQLVHDKVVQNW | OxCam degradation was inhibited by all the candidates | the majority of the CCRs successfully inhibited the degradation of α-synuclein, with the exception of RBBP9 and HRas | – | Human CBR3 inhibited 20S proteasomes from all tested species. | Human CBR3 inhibited 20S proteasomes from all tested species. |
